Test results reported in IntAct's records for PubMed 31515488.

B1: Growth arrest and DNA damage-inducible protein GADD45 gamma (Homo sapiens), O95257 (parent)
chain: MTLEEVRGQDTVPESTARMQGAGKALHELLLSAQRQGCLTAGVYESAKVLNVDPDNVTFCVLAAGEEDEGDIALQIHFTLIQAFCCENDIDIVRVGDVQRLAAIVGAGEEAGAPGDLHCILISNPNEDAWKDPALEKLSLFCEESRSVNDWVPSITLPE
partner: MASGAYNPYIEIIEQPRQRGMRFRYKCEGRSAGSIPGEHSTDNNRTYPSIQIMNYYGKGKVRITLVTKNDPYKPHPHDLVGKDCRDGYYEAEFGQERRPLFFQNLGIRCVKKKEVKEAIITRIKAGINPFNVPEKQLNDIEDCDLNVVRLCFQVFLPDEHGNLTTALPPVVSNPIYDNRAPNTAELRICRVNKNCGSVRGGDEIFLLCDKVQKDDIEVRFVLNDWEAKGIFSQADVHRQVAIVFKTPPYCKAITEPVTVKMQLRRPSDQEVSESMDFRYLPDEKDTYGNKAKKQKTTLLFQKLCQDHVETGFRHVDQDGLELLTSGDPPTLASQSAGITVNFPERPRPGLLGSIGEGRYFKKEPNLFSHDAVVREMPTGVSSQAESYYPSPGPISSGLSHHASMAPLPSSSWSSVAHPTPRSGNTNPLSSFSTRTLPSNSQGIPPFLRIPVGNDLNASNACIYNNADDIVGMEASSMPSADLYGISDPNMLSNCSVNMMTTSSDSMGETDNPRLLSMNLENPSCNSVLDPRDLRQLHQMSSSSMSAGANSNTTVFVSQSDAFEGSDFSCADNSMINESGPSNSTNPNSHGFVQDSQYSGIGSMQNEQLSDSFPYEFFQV
B2: Grancalcin (Homo sapiens), P28676 (parent)
chain: MAYPGYGGGFGNFSIQVPGMQMGQPVPETGPAILLDGYSGPAYSDTYSSAGDSVYTYFSAVAGQDGEVDAEELQRCLTQSGINGTYSPFSLETCRIMIAMLDRDHTGKMGFNAFKELWAALNAWKENFMTVDQDGSGTVEHHELRQAIGLMGYRLSPQTLTTIVKRYSKNGRIFFDDYVACCVKLRALTDFFRKRDHLQQGSANFIYDDFLQGTMAI
partner: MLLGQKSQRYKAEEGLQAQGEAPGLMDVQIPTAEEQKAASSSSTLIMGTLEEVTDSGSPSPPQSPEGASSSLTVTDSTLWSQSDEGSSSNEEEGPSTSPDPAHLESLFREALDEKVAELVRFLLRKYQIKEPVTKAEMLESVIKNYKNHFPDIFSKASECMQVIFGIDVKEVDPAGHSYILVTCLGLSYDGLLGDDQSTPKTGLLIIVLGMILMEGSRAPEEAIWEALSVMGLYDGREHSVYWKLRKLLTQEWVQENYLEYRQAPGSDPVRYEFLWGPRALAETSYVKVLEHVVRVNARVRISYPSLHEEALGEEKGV
B3: Calcium-binding and coiled-coil domain-containing protein 2 (Homo sapiens), Q13137 (parent)
chain: MEETIKDPPTSAVLLDHCHFSQVIFNSVEKFYIPGGDVTCHYTFTQHFIPRRKDWIGIFRVGWKTTREYYTFMWVTLPIDLNNKSAKQQEVQFKAYYLPKDDEYYQFCYVDEDGVVRGASIPFQFRPENEEDILVVTTQGEVEEIEQHNKELCKENQELKDSCISLQKQNSDMQAELQKKQEELETLQSINKKLELKVKEQKDYWETELLQLKEQNQKMSSENEKMGIRVDQLQAQLSTQEKEMEKLVQGDQDKTEQLEQLKKENDHLFLSLTEQRKDQKKLEQTVEQMKQNETTAMKKQQELMDENFDLSKRLSENEIICNALQRQKERLEGENDLLKRENSRLLSYMGLDFNSLPYQVPTSDEGGARQNPGLAYGNPYSGIQESSSPSPLSIKKCPICKADDICDHTLEQQQMQPLCFNCPICDKIFPATEKQIFEDHVFCHSL
partner: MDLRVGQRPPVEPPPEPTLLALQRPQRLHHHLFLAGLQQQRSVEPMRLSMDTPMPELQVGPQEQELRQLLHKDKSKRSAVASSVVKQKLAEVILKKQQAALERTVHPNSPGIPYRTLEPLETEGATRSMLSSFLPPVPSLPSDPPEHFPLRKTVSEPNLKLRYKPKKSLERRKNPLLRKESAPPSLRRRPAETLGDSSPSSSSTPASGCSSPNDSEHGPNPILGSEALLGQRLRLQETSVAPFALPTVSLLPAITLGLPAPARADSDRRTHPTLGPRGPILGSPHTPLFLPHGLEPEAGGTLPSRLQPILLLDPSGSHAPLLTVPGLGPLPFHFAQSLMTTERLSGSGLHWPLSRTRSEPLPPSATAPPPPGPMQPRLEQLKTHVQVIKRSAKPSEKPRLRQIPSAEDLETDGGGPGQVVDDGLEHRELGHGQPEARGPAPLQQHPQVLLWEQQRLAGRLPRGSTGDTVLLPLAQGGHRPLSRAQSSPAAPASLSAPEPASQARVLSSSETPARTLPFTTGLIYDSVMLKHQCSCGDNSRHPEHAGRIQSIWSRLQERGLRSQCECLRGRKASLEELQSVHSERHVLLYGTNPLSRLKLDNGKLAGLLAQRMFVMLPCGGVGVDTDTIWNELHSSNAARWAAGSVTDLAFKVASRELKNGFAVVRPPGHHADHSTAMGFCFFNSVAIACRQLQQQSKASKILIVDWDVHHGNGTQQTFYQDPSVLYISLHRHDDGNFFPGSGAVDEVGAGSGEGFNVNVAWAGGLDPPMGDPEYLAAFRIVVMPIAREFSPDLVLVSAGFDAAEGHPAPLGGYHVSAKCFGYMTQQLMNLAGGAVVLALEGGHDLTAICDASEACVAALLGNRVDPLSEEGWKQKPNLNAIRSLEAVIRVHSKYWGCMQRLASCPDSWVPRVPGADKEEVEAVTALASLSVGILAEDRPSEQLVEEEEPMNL
B4: Notch homolog 2 N-terminal-like protein A (Homo sapiens), Q7Z3S9 (parent)
chain: MCVTYHNGTGYCKCPEGFLGEYCQHRDPCEKNRCQNGGTCVAQAMLGKATCRCASGFTGEDCQYSTSHPCFVSRPCLNGGTCHMLSRDTYECTCQVGFTGKECQWTDACLSHPCANGSTCTTVANQFSCKCLTGFTGQKCETDVNECDIPGHCQHGGTCLNLPGSYQCQCLQGFTGQYCDSLYVPCAPSPCVNGGTCRQTGDFTFECNCLPETVRRGTELWERDREVWNGKEHDEN
partner: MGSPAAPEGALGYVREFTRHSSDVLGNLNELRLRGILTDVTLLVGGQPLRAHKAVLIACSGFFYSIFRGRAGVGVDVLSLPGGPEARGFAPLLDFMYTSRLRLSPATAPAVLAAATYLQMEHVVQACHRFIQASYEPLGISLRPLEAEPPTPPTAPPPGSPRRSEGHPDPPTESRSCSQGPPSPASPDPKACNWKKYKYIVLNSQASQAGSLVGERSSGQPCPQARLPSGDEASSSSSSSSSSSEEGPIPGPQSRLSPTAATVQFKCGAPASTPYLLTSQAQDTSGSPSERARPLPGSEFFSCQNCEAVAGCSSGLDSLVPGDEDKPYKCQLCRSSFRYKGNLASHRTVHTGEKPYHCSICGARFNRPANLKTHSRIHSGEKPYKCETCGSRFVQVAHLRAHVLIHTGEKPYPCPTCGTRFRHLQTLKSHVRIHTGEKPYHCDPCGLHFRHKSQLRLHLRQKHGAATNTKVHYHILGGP
B5: Thialysine N-epsilon-acetyltransferase (Homo sapiens), Q96F10 (parent)
chain: MASVRIREAKEGDCGDILRLIRELAEFEKLSDQVKISEEALRADGFGDNPFYHCLVAEILPAPGKLLGPCVVGYGIYYFIYSTWKGRTIYLEDIYVMPEYRGQGIGSKIIKKVAEVALDKGCSQFRLAVLDWNQRAMDLYKALGAQDLTEAEGWHFFCFQGEATRKLAGK
B6: Guanine nucleotide exchange factor for Rab-3A (Homo sapiens), Q8TBN0 (parent)
chain: MWSGPPQPDQGLPPPLAAVPVPWKSTDPCQGHRESPGALVETSAGEEAQGQEGPAAAQLDVLRLRSSSMEIREKGSEFLKEELHRAQKELKLKDEECERLSKVREQLEQELEELTASLFEEAHKMVREANMKQAASEKQLKEARGKIDMLQAEVTALKTLVITSTPASPNRELHPQLLSPTKAGPRKGHSRHKSTSSTLCPAVCPAAGHTLTPDREGKEVDTILFAEFQAWRESPTLDKTCPFLERVYREDVGPCLDFTMQELSVLVRAAVEDNTLTIEPVASQTLPTVKVAEVDCSSTNTCALSGLTRTCRHRIRLGDSKSHYYISPSSRARITAVCNFFTYIRYIQQGLVRQDAEPMFWEIMRLRKEMSLAKLGFFPQEA

Variants of: B1
Settings: with rel_human REL

Variant | effect of a mutation on the interaction
G112S | with no effect

Variants of: B2
Settings: with maga8_human MAGEA8, P43361

Variant | effect of a mutation on the interaction
S80A | disrupting interaction strength
K115R | disrupting interaction strength

Variants of: B3
Settings: with hdac7_human HDAC7, Q8WUI4

Variant | effect of a mutation on the interaction
P389A | with no effect
T273A | with no effect

Variants of: B4
Settings: with bcl6b_human BCL6B

Variant | effect of a mutation on the interaction
A115T | with no effect
R74Q | with no effect

Variants of: B5
Settings: with sat1_human SAT1, P21673
sat1_human SAT1, P21673, sequence (P21673 whole entry): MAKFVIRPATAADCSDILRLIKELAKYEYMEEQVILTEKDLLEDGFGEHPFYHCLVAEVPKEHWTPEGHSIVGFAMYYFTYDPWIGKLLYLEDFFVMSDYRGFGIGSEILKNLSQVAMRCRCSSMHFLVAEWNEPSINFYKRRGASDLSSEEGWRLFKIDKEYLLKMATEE

Variant | effect of a mutation on the interaction
R126C | disrupting interaction strength

Variants of: B6
Settings: with rb11a_human RAB11A

Variant | effect of a mutation on the interaction
S190P | with no effect
T26A | with no effect
H323Y | with no effect
